Results as given in US20070059304A1 (Pfizer, published 2007).

Tests used:
[1] = target: human TrkA expressed on HEK-293 cells (human) (UniProt P04629); experiment: cell-based or functional assay
[2] = target: human TrkC expressed on HEK-293 cells (human) (UniProt Q16288); experiment: cell-based or functional assay
[3] = target: human TrkB (full length), expressed on the surface of HEK-293 cells (human, UniProt Q16620 32-822); experiment: cell-based or functional assay
[4] = target: T1, rhTrkB-EDC-Fc: recombinant protein that includes the extracellular domain of human TrkB fused to the Fc … (human, UniProt Q16620 32-430); experiment: competition ELISA: rhTrkB-EDC-Fc binding to coated BDNF
T1 construct: bought (R&D system, Cat. No. 688-TK); also called human TrkB (ELISA); not shown: Fc region of human IgG1
T1 sequence (Q16620 32-430): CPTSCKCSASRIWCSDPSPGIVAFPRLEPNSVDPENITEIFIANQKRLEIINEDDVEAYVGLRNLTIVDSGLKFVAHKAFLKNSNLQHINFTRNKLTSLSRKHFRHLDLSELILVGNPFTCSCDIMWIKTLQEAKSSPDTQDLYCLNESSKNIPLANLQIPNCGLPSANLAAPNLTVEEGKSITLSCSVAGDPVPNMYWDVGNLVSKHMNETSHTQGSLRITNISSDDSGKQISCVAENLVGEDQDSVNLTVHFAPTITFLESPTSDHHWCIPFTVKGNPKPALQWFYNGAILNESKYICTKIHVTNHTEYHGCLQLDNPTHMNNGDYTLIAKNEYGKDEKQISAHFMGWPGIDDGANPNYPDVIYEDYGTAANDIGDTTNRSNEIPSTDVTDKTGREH

[5] = target: T1, rhTrkB-EDC-Fc: recombinant protein that …; experiment: ELISA on coated rhTrkB-EDC-Fc (ED50)

Chain of human TrkB (full length), expressed on the surface of HEK-293 cells (Q16620 other isoform, or with tags, fused parts or gaps limits assumed): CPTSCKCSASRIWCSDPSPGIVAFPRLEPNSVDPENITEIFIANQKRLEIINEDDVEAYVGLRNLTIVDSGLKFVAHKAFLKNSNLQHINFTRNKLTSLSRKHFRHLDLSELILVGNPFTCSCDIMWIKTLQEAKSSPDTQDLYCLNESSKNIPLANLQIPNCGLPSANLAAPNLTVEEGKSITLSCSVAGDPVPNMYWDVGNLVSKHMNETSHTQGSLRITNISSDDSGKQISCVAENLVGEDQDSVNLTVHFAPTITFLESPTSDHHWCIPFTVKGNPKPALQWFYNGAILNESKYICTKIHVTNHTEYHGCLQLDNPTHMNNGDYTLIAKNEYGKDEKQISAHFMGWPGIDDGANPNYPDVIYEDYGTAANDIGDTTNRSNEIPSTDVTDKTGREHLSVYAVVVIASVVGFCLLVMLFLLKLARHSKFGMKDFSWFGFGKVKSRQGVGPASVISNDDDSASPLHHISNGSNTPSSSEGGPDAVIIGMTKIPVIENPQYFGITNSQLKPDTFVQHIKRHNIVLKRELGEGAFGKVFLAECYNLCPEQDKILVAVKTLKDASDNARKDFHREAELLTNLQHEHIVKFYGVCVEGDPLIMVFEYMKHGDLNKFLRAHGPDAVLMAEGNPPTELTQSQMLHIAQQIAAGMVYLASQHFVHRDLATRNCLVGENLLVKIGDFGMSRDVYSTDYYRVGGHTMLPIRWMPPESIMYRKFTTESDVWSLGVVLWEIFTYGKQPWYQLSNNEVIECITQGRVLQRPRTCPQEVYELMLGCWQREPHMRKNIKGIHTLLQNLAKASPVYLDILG
Chain of human TrkA expressed on HEK-293 cells (human) (P04629 33-796 limits assumed): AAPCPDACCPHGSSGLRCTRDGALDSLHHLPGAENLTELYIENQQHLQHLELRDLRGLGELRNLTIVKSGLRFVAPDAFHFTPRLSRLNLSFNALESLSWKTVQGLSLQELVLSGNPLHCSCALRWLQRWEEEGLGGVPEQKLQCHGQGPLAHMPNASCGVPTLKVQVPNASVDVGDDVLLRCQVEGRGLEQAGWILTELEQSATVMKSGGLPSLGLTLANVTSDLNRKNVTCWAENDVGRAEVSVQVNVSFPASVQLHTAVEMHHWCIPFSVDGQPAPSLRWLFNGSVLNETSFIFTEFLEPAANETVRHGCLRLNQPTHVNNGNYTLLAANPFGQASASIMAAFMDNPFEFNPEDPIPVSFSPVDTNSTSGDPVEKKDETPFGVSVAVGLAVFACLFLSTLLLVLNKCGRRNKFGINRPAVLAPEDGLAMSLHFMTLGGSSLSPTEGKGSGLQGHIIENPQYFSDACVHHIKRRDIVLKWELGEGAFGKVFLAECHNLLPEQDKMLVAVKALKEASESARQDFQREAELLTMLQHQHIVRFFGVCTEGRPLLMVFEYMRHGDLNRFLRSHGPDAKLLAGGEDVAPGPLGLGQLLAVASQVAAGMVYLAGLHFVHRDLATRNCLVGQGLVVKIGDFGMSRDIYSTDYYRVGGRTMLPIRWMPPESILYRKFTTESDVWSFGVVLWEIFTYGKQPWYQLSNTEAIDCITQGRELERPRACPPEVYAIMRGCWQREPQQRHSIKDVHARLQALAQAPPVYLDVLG
Chain of human TrkC expressed on HEK-293 cells (human) (Q16288 32-839 S70N limits assumed): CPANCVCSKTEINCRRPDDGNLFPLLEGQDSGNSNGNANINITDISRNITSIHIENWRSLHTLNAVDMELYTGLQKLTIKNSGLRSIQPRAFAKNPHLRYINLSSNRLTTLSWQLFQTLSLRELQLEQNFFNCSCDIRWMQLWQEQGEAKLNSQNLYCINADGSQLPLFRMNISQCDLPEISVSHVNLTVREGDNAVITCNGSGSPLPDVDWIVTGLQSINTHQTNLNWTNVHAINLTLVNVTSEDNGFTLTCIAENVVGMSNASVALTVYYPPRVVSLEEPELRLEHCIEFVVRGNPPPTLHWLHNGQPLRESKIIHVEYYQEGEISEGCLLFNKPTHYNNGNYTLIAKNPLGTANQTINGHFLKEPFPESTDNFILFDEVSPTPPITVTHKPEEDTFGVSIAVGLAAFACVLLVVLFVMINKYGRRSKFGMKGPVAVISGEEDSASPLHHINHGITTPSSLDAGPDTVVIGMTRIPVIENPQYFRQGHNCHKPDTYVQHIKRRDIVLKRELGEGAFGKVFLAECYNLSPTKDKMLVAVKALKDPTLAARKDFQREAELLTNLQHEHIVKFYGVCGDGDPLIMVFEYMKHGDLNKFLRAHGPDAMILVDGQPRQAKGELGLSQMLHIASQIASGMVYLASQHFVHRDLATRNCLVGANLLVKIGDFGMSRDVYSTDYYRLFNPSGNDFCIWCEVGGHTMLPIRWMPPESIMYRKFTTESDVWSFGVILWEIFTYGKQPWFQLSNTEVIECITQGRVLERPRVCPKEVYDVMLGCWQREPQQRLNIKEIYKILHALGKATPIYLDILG

Molecule NGF (ligand) has a TrkA luciferase assay: signal at 300 ng/ml NGF (fold over basal) [1] of 6.

In the case of NT-3 (ligand), the TrkC luciferase assay: signal at 300 ng/ml NT-3 (fold over basal) [2] is reported as 6.

B1: BDNF (ligand, UniProt P23560 129-247, looked up)
chain: HSDPARRGELSVCDSISEWVTAADKKTAVDMSGGTVTVLEKVPVSKGQLKQYFYETKCNPMGYTKEGCRGIDKRHWNSQCRTTQSYVRALTMDSKKRIGWRFIRIDTSCVCTLTIKRGR
In the case of B1, the “luciferase assay, HEK-293 cells expressing rhTrkB: signal at 200 ng/ml BDNF” value [3] is reported as 6.2 fold over basal.

B2: 4C7 (antibody)
chain 1: QVQLVQSGAEVKKPGASVKVSCKASGYTFTNYVILWVRQAPGQGLEWMGYINPYNDGTKYNEKFKGRVTMTRDTSTSTVYMELSSLRSEDTAVYYCARLLKYRRFSYYAIDYWGQGTTVTVSS
chain 2: DIQMTQSPSSLSASVGDRVTITCRASENVYSNLAWYQQKPGKAPKLLIYAASNLQSGVPSRFSGSGSGTDFTFTISSLQPEDIATYYCQHFWGSPFTFGQGTKLEIK
B2 was tested, and the IC50 [4] was 0.3 nM, the EC50 [5] was 0.017 nM and the “luciferase assay, HEK-293 cells expressing rhTrkB: EC50” value [3] was roughly 0.1 nM.
